Measured values as given in PMC3507807, “DNA binding specificity of ATAF2, a NAC domain transcription factor targeted for degradation by Tobacco mosaic virus” (BMC Plant Biology, 2012).

Experiments:
[1] = molecular target: T1, ATAF2 (Arabidopsis thaliana) (UniProt Q9C598); test: EMSA; conditions: EMSA: 20 mM Tris-HCl pH 8.0, 60 mM KCl, 5 mM MgCl2, 100 ug/ml BSA, 5% glycerol, 1 mM DTT, 0.5 ug poly(dI-dC) in 10 ul, 100-300 fmol probe, 25 C 30 min
T1 sequence: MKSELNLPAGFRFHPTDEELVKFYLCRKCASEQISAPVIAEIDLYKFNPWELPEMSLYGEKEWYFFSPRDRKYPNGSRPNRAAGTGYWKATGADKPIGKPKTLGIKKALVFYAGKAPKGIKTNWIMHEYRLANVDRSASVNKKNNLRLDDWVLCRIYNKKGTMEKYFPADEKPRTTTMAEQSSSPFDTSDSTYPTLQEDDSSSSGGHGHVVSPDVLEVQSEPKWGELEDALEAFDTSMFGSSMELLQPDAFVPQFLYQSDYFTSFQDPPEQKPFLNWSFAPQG

[2] = molecular target: the molecule itself; test: SEC; Superdex-200 HR 10/30; ~160 ug purified protein, incubated 20 min at room temperature and run in 25 mM Tris-HCl pH 7.5, 10% glycerol, 500 mM NaCl, 0.5 mM EDTA; fractions checked by SDS-PAGE; mass markers 670, 158, 44 and 17 kDa
ATAF2 = molecular target: T2, ATAF2 (Arabidopsis thaliana, UniProt Q9C598 1-283); test: EMSA; binding not dramatically reduced; EMSA: 20 mM Tris-HCl pH 8.0, 60 mM KCl, 5 mM MgCl2, 100 ug/ml BSA, 5% glycerol, 1 mM DTT, 0.5 ug poly(dI-dC) in 10 ul, 100-300 fmol probe, 25 C 30 min; 5% native PAGE, 0.5X TBE. Footprint: same binding buffer, 10 fmol probe; conditions: protein: recombinant; tags: N-terminal His6 (pTrcHisA); chain copies: 2; label: 5'-32P
T2 sequence: T1 sequence

## TCAGAAGAGCAATCAAATTAAAACACATAT (double strand) [30-bp ATAF2 binding sequence (wild type)]
[1]
  binding signal: 100 % of WT

## TCAGAAGAGCAATCAAATTAAAGAACATAT (double strand) [M5 (nt 23-24 AC to GA)]
[1]; stated as 96% reduction
  binding signal: 4 % of WT

## TCCAAAGAGCAATCAAATTAAAACACATAT (double strand) [M1 (nt 3-4 AG to CA)]
[1]; stated as 91% reduction
  binding signal: 9 % of WT

## TCAGAAGAGCAATCAAATTAATTTTTTTAT (double strand) [C3 (nt 22-27 AACACA to TTTTTT)]
[1]; reduction >85%
  binding signal: < 15 % of WT

## TCAGAAGAGCAAGTCCCCTAAAACACATAT (double strand) [C2 (nt 13-18 TCAAAT to GTCCCC)]
[1]; reduction >85%
  binding signal: < 15 % of WT

## TCAGAAGAGCAAGAAAATTAAAACACATAT (double strand) [M3 (nt 13-14 TC to GA)]
[1]; stated as 47% reduction
  binding signal: 53 % of WT

## TCTTTTTAGCAATCAAATTAAAACACATAT (double strand) [C1 (nt 3-7 AGAAG to TTTTT)]
[1]; reduction >85%
  binding signal: < 15 % of WT

## TCAGAAGAGCAATCAAACCAAAACACATAT (double strand) [M4 (nt 18-19 TT to CC)]
[1]; stated as 87% reduction
  binding signal: 13 % of WT

B1: ATAF2 NAC domain (ATAF2-165, 1 aa to 165 aa) (domain or fragment, Arabidopsis, UniProt Q9C598 1-165, looked up)
chain: MKSELNLPAGFRFHPTDEELVKFYLCRKCASEQISAPVIAEIDLYKFNPWELPEMSLYGEKEWYFFSPRDRKYPNGSRPNRAAGTGYWKATGADKPIGKPKTLGIKKALVFYAGKAPKGIKTNWIMHEYRLANVDRSASVNKKNNLRLDDWVLCRIYNKKGTMEK
notes: ATAF2 (AT5g08790), Arabidopsis thaliana NAC domain transcription factor, truncated version containing only the NAC domain, residues 1-165; source: E. coli BL21 (+), pTrcHisA, purified (Ni-NTA)
[2]
  stoichiometry N: 2

B2: M2 (dsDNA)
DNA 1: TCAGAAGTACAATCAAATTAAAACACATAT
DNA 2: ATATGTGTTTTAATTTGATTGTACTTCTGA
ATAF2
  binding result: binds

B3: M6 (dsDNA)
DNA 1: TCAGAAGAGCAATCAAATTAAAACACACCT
DNA 2: AGGTGTGTTTTAATTTGATTGCTCTTCTGA
ATAF2
  binding result: binds
